Test results: patent US20260227403A1

Legend:
[1] = target: peptide P40 and peptide P38; experiment: ELISA, 1 µg truncated peptide per well, 20 ng/mL mAb
[2] = target: peptides with further truncation from the N-terminus and C-terminus (beyond P40 and P38); experiment: as above

binding efficiency in comparison to the full-length immunogenic peptide P1 (%) [1]: 80 to 100%
binding efficiency in comparison to the full-length immunogenic peptide P1 (%) [2]: 75%
B1: ETV1 rabbit monoclonal antibody (29E4) (antibody, V domains shown)
VH: QELEESGGDLVKPGASLTLTCTASGFFFSAENHICWVRQAPGKGLEWIGCVYIGSYVGGSGDPYYASWAKGRFTISKTSSTTVTLQMSSLTAADTATYFCARDLGSLWGPGTLVTVSS
VL: DVVMTQTASSVSAAVGGTVTIACQSSQSVYDNNNLAWFQQKPGQPPKRLIYSASTLASGVSSRFKGSGYGTQFTLTISDVQCDDAATYYCVGAFSGYIFVFGGGTEVVVK
